“Also recorded” adds a separate entry of the source. Read-outs that look alike come from different tables or passages of the source.
T1: mouse RPTPσ sEcto-Fc (Mus musculus, UniProt B0V2N1)
T1 construct: made in house; host or cells: transiently transfected 293T cells
T1 sequence (B0V2N1 30-851 isoform B0V2N1-3 limits assumed): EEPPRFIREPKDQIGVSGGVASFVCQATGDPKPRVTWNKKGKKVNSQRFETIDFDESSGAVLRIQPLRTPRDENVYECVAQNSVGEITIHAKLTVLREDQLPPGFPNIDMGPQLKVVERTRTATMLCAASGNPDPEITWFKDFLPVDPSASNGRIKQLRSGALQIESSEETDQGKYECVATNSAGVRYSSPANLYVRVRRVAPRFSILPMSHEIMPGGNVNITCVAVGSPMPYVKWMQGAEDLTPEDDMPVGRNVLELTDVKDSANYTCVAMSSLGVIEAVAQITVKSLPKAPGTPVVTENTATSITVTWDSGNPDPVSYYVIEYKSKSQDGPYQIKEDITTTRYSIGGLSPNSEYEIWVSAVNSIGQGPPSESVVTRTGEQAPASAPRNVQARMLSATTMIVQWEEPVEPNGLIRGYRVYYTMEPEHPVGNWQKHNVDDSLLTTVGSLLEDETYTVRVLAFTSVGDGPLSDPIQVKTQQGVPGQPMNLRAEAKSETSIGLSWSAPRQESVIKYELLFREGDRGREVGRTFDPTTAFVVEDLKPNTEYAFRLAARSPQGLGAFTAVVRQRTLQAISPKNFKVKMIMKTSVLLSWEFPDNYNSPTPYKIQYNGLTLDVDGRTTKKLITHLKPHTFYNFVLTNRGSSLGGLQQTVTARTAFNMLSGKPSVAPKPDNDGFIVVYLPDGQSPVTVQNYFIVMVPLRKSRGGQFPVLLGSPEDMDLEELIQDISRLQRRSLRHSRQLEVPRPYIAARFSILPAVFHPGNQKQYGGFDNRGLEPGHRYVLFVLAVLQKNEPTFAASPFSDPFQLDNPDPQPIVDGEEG


What was measured:
[1] = molecular target: Mouse RPTPσ sEcto-Fc (mouse) (UniProt B0V2N1); test: solid phase binding assay, immobilised mouse RPTPσ sEcto-Fc, bound AP activity; Kd from the binding curve, one-to-one binding assumed; Scatchard inset
[2] = molecular target: RPTPσ on mouse dorsal root ganglion (DRG) neurons (mouse) (UniProt B0V2N1); test: cell-based or functional assay
[3] = molecular target: T1, mouse RPTPσ sEcto-Fc; test: Solid phase binding assay: proteoglycan-AP fusion proteins on immobilised RPTPσ sEcto-Fc; settings: neurocan pre-treated with chondroitinase ABC; glypican-2 pre-treated with heparitinase III
Description: Analysis of binding between RPTPσ sEcto-Fc and Glypican-2 or Neurocan alkaline phosphate (AP) fusion proteins was performed as described previously (S2, S26). All fusion proteins were produced in transiently transfected 293T cells. Briefly, the RPTPσ Fc-fusion protein was immobilised on 96-well Reactibind Protein A-coated plates (Pierce) and incubated with soluble proteoglycan-AP proteins which had been normalized for equal input AP activity. AP activity was determined by measuring substrate turnover on a microplate reader as described (S27, S28). […] In FIG. 23, the binding between RPTPσ-Fc and heparin-derived size-fractionated oligosaccharides with different lengths (HS6, HS8, HS10, HS17, HS23, HS30 and HS67, corresponding to hexasaccharide, octasaccharide, decasaccharide, or approximately 17, 23, 30 and 67 saccharide units; molecular weights 1,800 Da, 3,000 Da, 5,000 Da, 7,000 Da, 9,000 Da, and 20,000 Da; Neoparin) was analyzed with RPTPσ-Fc immobilised on 96-well Reactibind Protein A-coated plates (Pierce) and incubated with soluble biotinalated HS. The bound HS was quantified by AP enzyme activity following incubation with streptavidin-AP (Promega). […]

[4] = system: wild-type mouse DRG neurons; test: DRG neurite outgrowth assay (GAP-43 immunostaining, total neurite outgrowth); type: cell-based; settings: for effect on neurite outgrowth of wild-type neurons: poly-D-lysine/laminin supplemented with neurocan 5 μg/ml or glypican-2 30 μg/ml
Description: (§1) DRGs of P8-12 RPTPσ^+/+ or RPTPσ^−/− mice were cut off from all roots. Neurons were dissociated and subjected to neurite outgrowth assays and analysis as described previously (S2). For experiments in FIG. 1, recombinant mouse Neurocan (5800-NC, R&D Systems) was used at 5 μg/ml and recombinant mouse Glypican-2 (2355-GP, R&D Systems) at 30 μg/ml. In FIG. 5, 30 μg/ml of Glypican-2 was pre-incubated with 1 unit/ml of Heparitinase III (HPNIII, H8891, Sigma) at 37° C. for 4 hrs where indicated, prior to use in outgrowth assays. For experiments in FIG. 19, recombinant mouse glypican-2 was used at 5 μg/ml, and Chondroitin Sulfate Proteoglycan mixture (CSPG, CC117, Millipore) was at 125 μg/ml. For experiments in FIGS. 24 and 25, Chondroitin Sulfate Proteoglycan mixture (CSPG, CC117, Millipore) was at 60 μg/ml, with or without the addition of HS at indicated length and concentration (1 μM for all HS in […]). Proteoglycans and heparin oligosaccharides were added to neuronal cultures 30 min after seeding and were replenished 24 hrs later. At 48 hrs after seeding, cells were fixed and immunostained with anti-GAP43 antibody (NB300-143, Novus). The whole of each well was scanned with a fluorescence microscope and the images were then analyzed for total neurite outgrowth using the Metamorph program.

[5] = system: RPTPσ−/− P8 mouse DRG neurons; test: DRG neurite outgrowth assay in RPTPσ−/− neurons; type: cell-based; settings: neurocan 5 μg/ml or glypican-2 30 μg/ml; 48 hours
Description: as §1

[6] = molecular target: Mouse RPTPσ sEcto-Fc (mouse) (UniProt B0V2N1); test: solid phase binding assay, immobilised mouse RPTPσ sEcto-Fc, bound AP activity; Kd from the binding curve, one-to-one binding assumed; Scatchard inset; remark: listed apart in the source

Sequence of Neurocan-alkaline phosphatase (P55066 23-1268): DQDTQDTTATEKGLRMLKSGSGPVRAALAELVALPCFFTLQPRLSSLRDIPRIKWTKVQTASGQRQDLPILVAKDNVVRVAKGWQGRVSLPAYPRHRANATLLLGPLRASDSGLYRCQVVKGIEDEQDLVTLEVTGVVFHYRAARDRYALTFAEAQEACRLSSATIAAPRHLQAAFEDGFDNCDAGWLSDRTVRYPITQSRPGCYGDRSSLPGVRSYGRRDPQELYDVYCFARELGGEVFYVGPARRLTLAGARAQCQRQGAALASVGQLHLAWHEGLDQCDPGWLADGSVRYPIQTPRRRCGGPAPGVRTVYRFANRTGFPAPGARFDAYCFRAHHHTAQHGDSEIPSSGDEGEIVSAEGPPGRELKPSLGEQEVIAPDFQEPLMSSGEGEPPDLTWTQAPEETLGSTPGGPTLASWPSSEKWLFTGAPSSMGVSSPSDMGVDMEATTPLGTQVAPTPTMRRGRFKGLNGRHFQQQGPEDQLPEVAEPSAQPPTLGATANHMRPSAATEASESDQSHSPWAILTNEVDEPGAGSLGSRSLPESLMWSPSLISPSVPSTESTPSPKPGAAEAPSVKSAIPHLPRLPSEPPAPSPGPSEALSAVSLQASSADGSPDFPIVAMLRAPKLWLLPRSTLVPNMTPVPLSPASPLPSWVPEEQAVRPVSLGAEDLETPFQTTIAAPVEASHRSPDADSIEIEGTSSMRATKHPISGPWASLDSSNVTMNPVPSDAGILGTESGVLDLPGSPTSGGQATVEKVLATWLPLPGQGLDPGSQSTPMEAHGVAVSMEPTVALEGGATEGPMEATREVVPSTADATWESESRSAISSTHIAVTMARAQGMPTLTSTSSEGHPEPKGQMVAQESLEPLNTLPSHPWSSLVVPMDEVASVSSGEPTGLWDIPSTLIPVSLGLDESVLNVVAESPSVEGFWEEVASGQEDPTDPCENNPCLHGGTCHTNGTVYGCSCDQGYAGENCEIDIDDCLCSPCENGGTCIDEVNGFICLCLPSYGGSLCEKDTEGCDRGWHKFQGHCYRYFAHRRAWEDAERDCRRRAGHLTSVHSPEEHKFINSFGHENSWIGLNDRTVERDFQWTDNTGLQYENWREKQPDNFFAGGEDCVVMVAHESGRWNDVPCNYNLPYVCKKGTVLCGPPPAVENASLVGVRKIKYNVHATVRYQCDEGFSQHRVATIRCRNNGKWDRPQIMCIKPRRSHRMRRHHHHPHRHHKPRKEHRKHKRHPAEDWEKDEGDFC

| Molecule | binding to RPTPσ after enzymatic removal of GAG chains [3] | effect on neurite outgrowth of wild-type neurons ([4]; 48 hours) | effect on neurite outgrowth of RPTPσ−/− neurons compared with wild-type [5] | also measured |
| --- | --- | --- | --- | --- |
| Neurocan-alkaline phosphatase |  |  |  | Kd [1]: 21.2 nM |
| recombinant mouse Neurocan (5800-NC, R&D Systems) (from UniProt P55066 23-637) |  |  |  | decrease in outgrowth of wild-type DRG neurons (neurite outgrowth assay) [2]: 60% |
| glypican-2: a representative HSPG; Glypican2-AP fusion in binding assays, recombinant mouse Glypican-2 (2355-GP, R&D Systems) in outgrowth assays (protein) HGSEAKVVRSCAETRQVLGARGYSLNLIPPSLISGEHLQVCPQEYTCCSSETEQKLIRDAEVTFRGLVEDSGSFLIHTLAARHRKFNEFFREMLSISQHSLAQLFSHSYGRLYSQHAVIFNSLFSGLRDYYEKSGEGLDDTLADFWAQLLERAFPLLHPQYSFPPDFLLCLTRLTSTADGSLQPFGDSPRRLRLQISRALVAARALVQGLETGRNVVSEALKVPVLEGCRQALMRLIGCPLCRGVPSLMPCRGFCLNVAHGCLSSRGLEPEWGGYLDGLLLLAEKLQGPFSFELAAESIGVKISEGLMHLQENSVKVSAKVFQECGTPHPVQSRSRRAPAPREEASRSWRASAEEERPTTAAGTNLHRLVWELRERLSRVRGFWAGLPVTVCGDSRMAADLSQETAPCWTGVGRGRYMSPVVVGSLNEQLHNPELDTSSPDVPTRRRRLHLRAATARMKAAALGQDLDMHDADEDASGSGGGQQYADDWKAGAVPVVPPARPPRPPRPPRRDGLGVRGGSGSARYNQGRSRNLGS | dramatically reduced binding | strongly promoted outgrowth; also recorded: promotion of outgrowth | reduced to undetectable levels | neurite outgrowth relative to control at lower concentration ([4]; glypican-2 5 μg/ml, wild-type P10 DRG neurons (FIG. 19)): promoted outgrowth to a lesser extent; growth-promoting effect after heparitinase III treatment ([4]; glypican-2 30 μg/ml pre-incubated with 1 unit/ml HPNIII): significantly reduced its growth-promoting ability; also recorded: did not completely eliminate the growth promoting effect |
| neurocan: a representative CSPG; Neurocan-AP fusion in binding assays, recombinant mouse Neurocan (5800-NC, R&D Systems) in outgrowth assays (protein) DQDTQDTTATEKGLRMLKSGSGPVRAALAELVALPCFFTLQPRLSSLRDIPRIKWTKVQTASGQRQDLPILVAKDNVVRVAKGWQGRVSLPAYPRHRANATLLLGPLRASDSGLYRCQVVKGIEDEQDLVTLEVTGVVFHYRAARDRYALTFAEAQEACRLSSATIAAPRHLQAAFEDGFDNCDAGWLSDRTVRYPITQSRPGCYGDRSSLPGVRSYGRRDPQELYDVYCFARELGGEVFYVGPARRLTLAGARAQCQRQGAALASVGQLHLAWHEGLDQCDPGWLADGSVRYPIQTPRRRCGGPAPGVRTVYRFANRTGFPAPGARFDAYCFRAHHHTAQHGDSEIPSSGDEGEIVSAEGPPGRELKPSLGEQEVIAPDFQEPLMSSGEGEPPDLTWTQAPEETLGSTPGGPTLASWPSSEKWLFTGAPSSMGVSSPSDMGVDMEATTPLGTQVAPTPTMRRGRFKGLNGRHFQQQGPEDQLPEVAEPSAQPPTLGATANHMRPSAATEASESDQSHSPWAILTNEVDEPGAGSLGSRSLPESLMWSPSLISPSVPSTESTPSPKPGAAEAPSVKSAIPHLPRLPSEPPAPSPGPSEALSAVSLQASSADGSPD | dramatically reduced binding | inhibition | inhibitory effect was decreased | reduction of neurite outgrowth ([4]; wild-type DRG neurons, neurocan 5 μg/ml, 48 hours): approximately 60% |
| Glypican-2-AP (protein, mouse, UniProt Q8BKV1 22-555, looked up, not shown: large carriers, carries heparan sulfate GAG chains (removed by heparitinase III)) HGSEAKVVRSCAETRQVLGARGYSLNLIPPSLISGEHLQVCPQEYTCCSSETEQKLIRDAEVTFRGLVEDSGSFLIHTLAARHRKFNEFFREMLSISQHSLAQLFSHSYGRLYSQHAVIFNSLFSGLRDYYEKSGEGLDDTLADFWAQLLERAFPLLHPQYSFPPDFLLCLTRLTSTADGSLQPFGDSPRRLRLQISRALVAARALVQGLETGRNVVSEALKVPVLEGCRQALMRLIGCPLCRGVPSLMPCRGFCLNVAHGCLSSRGLEPEWGGYLDGLLLLAEKLQGPFSFELAAESIGVKISEGLMHLQENSVKVSAKVFQECGTPHPVQSRSRRAPAPREEASRSWRASAEEERPTTAAGTNLHRLVWELRERLSRVRGFWAGLPVTVCGDSRMAADLSQETAPCWTGVGRGRYMSPVVVGSLNEQLHNPELDTSSPDVPTRRRRLHLRAATARMKAAALGQDLDMHDADEDASGSGGGQQYADDWKAGAVPVVPPARPPRPPRPPRRDGLGVRGGSGSARYNQGRSRNLG |  |  |  | Kd [6]: 10.5 nM |

Reference: US9744188B2, “Methods of promoting neuronal outgrowth by gypican 2 that binds to receptor protein tyrosine phosphatase sigma” (PRESIDENT AND FELLOWS OF HARVARD COLLEGE, priority 2011, dated 2017)
